{"source": "patent US20080108135A1", "about": "(University of California, published 2008)", "molecules": {"B1": {"name": "F5 scFv (native purified soluble scFv) (scFv, not shown: small tags and cut ends)", "scFv": "QVQLVESGGGLVQPGGSLRLSCAASGFTFRSYAMSWVRQAPGKGLEWVSAISGRGDNTYYADSVKGRFTISRDNSKNTLYLQMNSLRAEDTAVYYCAKMTSNAFAFDYWGQGTLVTVSSGGGGSGGGGSGGGGSQSVLTQPPSVSGAPGQRVTISCTGSSSNIGAGYGVHWYQQLPGTAPKLLIYGNTNRPSGVPDRFSGFKSGTSASLAITGLQAEDEADYYCQSYDSSLSGWVFGGGTKLTVLG", "notes": "also called 3TF5; scFv-F5"}}, "key": {"[1]": {"target": "ErbB2 on tumor cell lines (SKBR3, SK-OV-3, MCF7) (UniProt P04626)", "test": "5.0 × 10^11 phage on about 1.0 × 10^5 SKBR3 cells at 37 C, surface bound phage eluted with low pH glycine, titered on E. coli TG1"}, "[2]": {"target": "ErbB2 on tumor cell lines (SKBR3, SK-OV-3, MCF7) (UniProt P04626)", "test": "cell-based or functional assay"}, "[3]": {"target": "ErbB2 on tumor cell lines (SKBR3, SK-OV-3, MCF7) (UniProt P04626)"}, "[4]": {"target": "T1, ErbB2 (form in the assay not stated) (UniProt P04626 23-1255)", "T1 construct": "also called c-erbB-2", "test": "competition by flow cytometry, panel 'C1 phage binding': soluble scFv inhibits binding of C1 phage; % of maximal MFI"}, "[5]": {"target": "T1, ErbB2 (form in the assay not stated)", "test": "method not stated"}}, "note": "Like-named read-outs stand apart in the source and are kept apart here."}
{"molecule": "C6.5 diabody phage", "values": [{"measurement": "titer of cell surface bound phage, 1st glycine wash", "setting": "[1]", "result": "1.8e+07", "unit": "phage titer"}, {"measurement": "titer of cell surface bound phage, 2nd glycine wash", "setting": "[1]", "result": "2.8e+06", "unit": "phage titer"}, {"measurement": "Lysed cell fraction (titer of internalized phage), SKBR3 cells", "setting": "[2]", "result": "1.7e+07", "unit": "phage titer"}, {"measurement": "cells with internalized phage, confocal microscopy, SKBR3 cells", "setting": "[2]", "result": "20 % of cells"}]}
{"molecule": "C6.5 phage (anti-ErbB2 C6.5 scFv displayed on phage)", "values": [{"measurement": "titer of cell surface bound phage, 1st glycine wash", "setting": "[1]", "result": "1.2e+07", "unit": "phage titer"}, {"measurement": "titer of cell surface bound phage, 2nd glycine wash", "setting": "[1]", "result": "5.2e+06", "unit": "phage titer"}, {"measurement": "Lysed cell fraction (titer of internalized phage), SKBR3 cells", "setting": "[2]", "result": "6.8e+07", "unit": "phage titer"}]}
{"molecule": "C6.5cys scFv conjugated to liposomes", "values": [{"measurement": "Total uptake of scFv-conjugated liposomes by SKBR3 cells", "setting": "[2]", "result": 3.4}, {"measurement": "share of the liposome uptake that was internalized, SKBR3 cells", "setting": "[2]", "result": 70, "unit": "%"}]}
{"molecule": "irrelevant anti-Botulinum phage (scFv)", "values": [{"measurement": "titer of cell surface bound phage, 1st glycine wash", "setting": "[3]", "result": 600000, "unit": "phage titer"}, {"measurement": "titer of cell surface bound phage, 2nd glycine wash", "setting": "[3]", "result": 100000, "unit": "phage titer"}, {"measurement": "Lysed cell fraction (titer of internalized phage), SKBR3 cells", "setting": "[2]", "result": 600000, "unit": "phage titer"}]}
{"molecule": "B1", "values": [{"measurement": "IC50 (read off the curve)", "setting": "[4]", "result": "~200", "unit": "nM"}, {"measurement": "Kd", "setting": "[5]", "result": 320, "unit": "nM"}]}
